In patent US20250101135A1 (Hoffmann-La Roche, published 2025):

T1: human CEA (CEACAM5) on tumor cells (human, UniProt P06731 35-685)
T1 construct: also called MKN45; MKN-45
T1 sequence: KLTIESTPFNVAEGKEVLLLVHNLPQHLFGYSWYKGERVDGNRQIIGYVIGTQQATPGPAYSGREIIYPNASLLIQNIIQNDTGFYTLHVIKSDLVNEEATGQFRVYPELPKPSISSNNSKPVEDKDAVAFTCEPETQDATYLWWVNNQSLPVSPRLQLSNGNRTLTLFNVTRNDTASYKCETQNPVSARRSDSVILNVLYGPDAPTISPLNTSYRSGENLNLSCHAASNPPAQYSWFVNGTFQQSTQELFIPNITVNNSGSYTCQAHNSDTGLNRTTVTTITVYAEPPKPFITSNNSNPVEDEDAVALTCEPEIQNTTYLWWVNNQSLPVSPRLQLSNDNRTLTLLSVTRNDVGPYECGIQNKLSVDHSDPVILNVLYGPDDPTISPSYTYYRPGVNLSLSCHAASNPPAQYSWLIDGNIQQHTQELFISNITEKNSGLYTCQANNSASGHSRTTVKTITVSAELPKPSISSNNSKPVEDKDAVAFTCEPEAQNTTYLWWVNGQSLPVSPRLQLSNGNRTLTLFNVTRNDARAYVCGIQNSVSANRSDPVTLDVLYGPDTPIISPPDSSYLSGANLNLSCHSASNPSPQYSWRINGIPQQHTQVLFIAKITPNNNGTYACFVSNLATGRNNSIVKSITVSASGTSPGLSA

T2: human CD19 on B cell lymphoma and leukemia cell lines (human, UniProt P15391 20-556)
T2 construct: also called SU-DHL-8; Nalm6
T2 sequence: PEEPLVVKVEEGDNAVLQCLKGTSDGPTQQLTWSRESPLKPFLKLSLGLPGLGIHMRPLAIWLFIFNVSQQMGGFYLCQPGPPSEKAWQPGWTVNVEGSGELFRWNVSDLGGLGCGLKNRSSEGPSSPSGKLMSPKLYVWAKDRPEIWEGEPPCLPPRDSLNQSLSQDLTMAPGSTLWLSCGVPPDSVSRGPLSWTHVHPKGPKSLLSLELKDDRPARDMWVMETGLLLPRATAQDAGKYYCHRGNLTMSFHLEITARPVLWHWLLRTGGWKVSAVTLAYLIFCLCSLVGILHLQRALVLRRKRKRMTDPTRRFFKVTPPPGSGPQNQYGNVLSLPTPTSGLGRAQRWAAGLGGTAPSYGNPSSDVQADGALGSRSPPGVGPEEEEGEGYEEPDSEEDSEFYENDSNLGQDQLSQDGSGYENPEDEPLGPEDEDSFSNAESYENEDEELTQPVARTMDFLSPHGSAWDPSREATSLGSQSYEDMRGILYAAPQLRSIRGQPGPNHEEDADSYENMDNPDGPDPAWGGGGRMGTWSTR


Assays:
[1] = molecular target: T1, human CEA (CEACAM5) on tumor cells; experiment: flow cytometry on CEA-expressing MKN45 cells
Protocol: Cells were harvested, counted, checked for viability and re-suspended at 2×10⁶ cells/ml in FACS buffer (100 μl PBS 0.1% BSA). […] Binding curves and EC50 values were obtained and calculated using GraphPadPrism5.

[2] = molecular target: T2, human CD19 on B cell lymphoma and …; experiment: flow cytometry on Nalm6 cells
Protocol: (§1) Cells were washed once with 200 μL DPBS and pellets were resuspended. […] Cells were washed twice with 200 μL 4° C. FACS buffer and then resuspended in 50 μL/well DPBS containing 1% formaldehyde. The same or the next day cells were resuspended in 100 μL FACS-buffer and acquired using 5-laser LSR-FORTESSA® (BD Bioscience with DIVA software) or 3-laser Miltenyi Quant Analyzer 10 (Mitenyi Biotec) and Flow Jo (FlowJo X 10.0.7).

[3] = molecular target: T2, human CD19 on B cell lymphoma and …; experiment: flow cytometry on Toledo cells
Protocol: as §1

[4] = molecular target: T2, human CD19 on B cell lymphoma and …; experiment: flow cytometry on OCI-Ly18 cells
Protocol: as §1

[5] = molecular target: T2, human CD19 on B cell lymphoma and …; experiment: flow cytometry on SU-DHL-8 cells
Protocol: as §1

[6] = molecular target: T3, monomeric human CD19 antigen Fc(kih) fusion molecule (human, UniProt P0DOX5 223-449 = IgG part); experiment: SPR Biacore T200, captured via anti-human Fab, human CD19-Fc(kih) analyte
T3 construct: also called monomeric CD19-Fc; human CD19-Fc(kih)
Protocol: Anti-human Fab antibody (Biacore, Freiburg/Germany) was directly coupled on a CM5 chip at pH 5.0 using the standard amine coupling kit (Biacore, Freiburg/Germany). The immobilization level was approximately 8000 RU. […] Recombinant human CD19-Fc(kih) was passed at a concentration range from 7.8 to 500 nM (2-fold dilution) with a flow of 30 μL/minutes through the flow cells over 120 seconds. The dissociation was monitored for 120/1800 seconds. Bulk refractive index differences were corrected for by subtracting the response obtained on reference flow cell.
Affinity constants for the interaction were determined by fitting to a 1:1 Langmuir binding.

[7] = molecular target: T4, human 4-1BB (CD137) on cells (human, UniProt Q07011 24-255); experiment: flow cytometry, activated human PBMC, CD4+ T cells (panel title MFI CD4), PE anti-human IgG Fc secondary
T4 construct: whole, on cells; also called 4-1BB+CD8+; 4-1BB+CD4+
T4 sequence (Q07011 24-255): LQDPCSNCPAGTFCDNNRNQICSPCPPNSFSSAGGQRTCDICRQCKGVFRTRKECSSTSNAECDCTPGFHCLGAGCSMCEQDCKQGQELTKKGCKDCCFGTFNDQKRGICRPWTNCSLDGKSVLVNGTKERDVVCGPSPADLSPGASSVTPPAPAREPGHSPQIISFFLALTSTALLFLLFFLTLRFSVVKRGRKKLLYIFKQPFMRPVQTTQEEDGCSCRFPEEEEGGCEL
Description: Gates were set on living CD45+CD3+CD4+ or CD45+CD3+CD8+ T cells and MFI of PE-conjugated AffiniPure anti-human IgG IgG Fcγ-fragment-specific goat F(ab′)2 fragment were blotted against the titrated concentration of targeted split trimeric 4-1BB ligand Fc fusion variants.

EC50 [1] [µg/mL] | EC50 [2] [pM] | EC50 [3] [pM] | EC50 [4] [pM] | EC50 [5] [pM] | Kd [6] [pM] | koff [6] [s⁻¹] | kon [6] [M⁻¹ s⁻¹] | binding result [7] | Binder
1.5 | – | – | – | – | – | – | – | – | Humanized variant 1 of T84.66 IgG (T84.66-LCHA) (antibody, V domains shown, IgG) VH: QVQLVQSGAEVKKPGSSVKVSCKASGFNIKDTYMHWVRQAPGQGLEWMGRIDPANGNSKYVPKFQGRVTITADTSTSTAYMELSSLRSEDTAVYYCAPFGYYVSDYAMAYWGQGTLVTVSS VL: EIVLTQSPATLSLSPGERATLSCRAGESVDIFGVGFLHWYQQKPGQAPRLLIYRASNRATGIPARFSGSGSGTDFTLTISSLEPEDFAVYYCQQTNEDPYTFGQGTKLEIK
– | 100 | 60 | 70 | 90 | 12300 | 0.000261 | 21200 | no binding (tested: about 300 nM) | anti-CD19(8B8-018) huIgG1 PGLALA (control G) (antibody, V domains shown) VH: QVQLVQSGAEVKKPGASVKVSCKASGYTFTDYIMHWVRQAPGQGLEWMGYINPYNDGSKYTEKFQGRVTMTSDTSISTAYMELSRLRSDDTAVYYCARGTYYYGSALFDYWGQGTTVTVSS VL: DIVMTQTPLSLSVTPGQPASISCKSSQSLENPNGNTYLNWYLQKPGQSPQLLIYRVSKRFSGVPDRFSGSGSGTDFTLKISRVEAEDVGVYYCLQLTHVPYTFGQGTKLEIKR
